Results on 41 sequences are retold here after the nanobody polyreactivity screen of Harvey et al. (2022).

The data set in a line: yeast display, Sf9 membrane polyspecificity reagent, FACS + sequencing; frameworks hold sequencing errors. The method in brief:
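In a synthetic yeast display library (Saccharomyces cerevisiae BJ5465), nanobody expression was induced with galactose for 36–48 hours. FACS gates were set low and high (top ~1%) using anti-HA fluorescence for expression and streptavidin fluorescence for binding of the Sf9 membrane reagent. Each polyreactivity label is drawn from the gate of origin.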
“QVQLVESGGGLVQAGGSLRLSCAASGRTLDRYAMGWYSPAPGKERELVAAIRWSTGSTYYADSVKGRFTISRDNAKNTVYLQMNSLKPEDTAVYYCAAELSYWWYFAMDYWGQGTQVTVSS”: the “polyreactivity (PSR sort gate)” value was “high polyreactivity”. On to “QVQLVESGGGLVQAGGSLRLSCAASGRTLDWNAMGWYRQAPGKERELVAAISWSGDSTYYADSVKGRFTISRDNAKNTVYLQMNSLKPEDTAVYYCAARYGRSWGRGYGYWGQGTQVTVSS”, for which the “polyreactivity (PSR sort gate)” value is “low polyreactivity”. The entry for “QVQLVESGGGLVQAGGSLRLSCAASGRTLDWNAMGWYRQAPGKERELVAAISWSGDSTYYADSVKGRFTISRDNAKNTVYLQMNSLKPEDTAVYYCDARYGRSWGRGYGYWGQGTQVTVSS” is “low polyreactivity”. Take “QVQLVESGGGLVQAGGSLRLSCAASGRTLEHNAMGWYRQAPGKERELVAAISGSGGTTYYADSVKGRFTISRDNAKNTVYLQMNSLKPEDTAVYYCNAKLYRSFDYWGQGTQVTVSS”: the “polyreactivity (PSR sort gate)” value is recorded as “low polyreactivity”. Regarding “QVQLVESGGGLVQAGGSLRLSCAASGRTLEQYAMGWYRQAPRKERELVAAINKSGARTYYADSVKGRFTISRDNAKNSVYLQMNSQKPEDTAVYYCNTVGPSYLFDYWGQGTQVTVSS”, the “polyreactivity (PSR sort gate)” value is “high polyreactivity”. Turning to “QVQLVESGGGLVQAGGSLRLSCAASGRTLGLYAMGWYRQAPGKERELVAAITTSGGSTSYADSVKGRFTISRDNAKNTVYLQMNSLKPEDTAVYYCAARYLSYITGTSYYWGQGTQVTVSS”, the “polyreactivity (PSR sort gate)” value was “low polyreactivity”.

For the sequence “QVQLVESGGGLVQAGGSLRLSCAASGRTLGPNAMGWYRQAPGKERELVAAISWSGGSTYYADSVKGRFTISRDNAKNTVYLQMNSLKPEDTAVYYCAAEWYWVYYVPYEYWGQGTQVTVSS”, the “polyreactivity (PSR sort gate)” value is reported as “low polyreactivity”. Regarding “QVQLVESGGGLVQAGGSLRLSCAASGRTLGRNAMGWYRQAPGKVRELVASISSGGSTNYAYSVKGSFTISRDNAKNTVYLQMNSQKPEDTEVYYCNKRYRSLYSSGYDYWGQVTQVTVSS”, the “polyreactivity (PSR sort gate)” value is on record as “high polyreactivity”. As to “QVQLVESGGGLVQAGGSLRLSCAASGRTLGRYAMGWYRHAPGKERELVADISFRGGSTYYADSVKGRFTISRDNAKNTVYLQMNSLKPVDTAVYYCAAVPGPASKYGYWGQGTQVTVSS”, the “polyreactivity (PSR sort gate)” value is recorded as “high polyreactivity”. “QVQLVESGGGLVQAGGSLRLSCAASGRTLGVYAMGWSRQAPGKERELVAAIRYRGGITYYADSVKGRFTISRDNAKNTVYLQMNSLKPEDTAVYYCAADWAWDTKSAPAYPRAYDYWGQGTQVTVSS”: the “polyreactivity (PSR sort gate)” value is recorded as “low polyreactivity”. Under “QVQLVESGGGLVQAGGSLRLSCAASGRTLGYYAMGWYRQAPGKERELVAAITSRTGTTYYADSVKGRFTISRDNAKNTVFLQMNSLKPEDTAVYYCNAAYYSTVLGWYLEYDYWGQGTQVTVSS” stands “high polyreactivity”. In the case of “QVQLVESGGGLVQAGGSLRLSCAASGRTLHDYTMGWYRQSPGKERELVAGITSGGRTNYADSVKGRFTISRDNAKNTVYLQMNSLKPEDTADYYCAAAWTWWRLYAVDYWGQGTQVTVSS”, the “polyreactivity (PSR sort gate)” value is “high polyreactivity”.

On to “QVQLVESGGGLVQAGGSLRLSCAASGRTLHYYAMGWYRQAPGKERELVARINWSGGSTYYADSVKGRFTISRDNAKNTVYLQMNCLKPEDTAVYYCARTSYYWSSFDYWGQGTQVTVSS”, for which the “polyreactivity (PSR sort gate)” value was “high polyreactivity”.

Take “QVQLVESGGGLVQAGGSLRLSCAASGRTLKRNAMGWYRQAPGKERELVAAISFRVTNTYYADSVKGRFTISRDNAKNTVYLQMNSLKPEDTAVYYCAVPDSRFYSPRRVSPHDYWGQGTQVTVSS”: the “polyreactivity (PSR sort gate)” value was “high polyreactivity”. The entry for “QVQLVESGGGLVQAGGSLRLSCAASGRTLKYNPMGWYRQAPGKERELVAAISRSGGRTYYADSVKGRFTIARDIAKYSVYSQINSLKPEDTAVYYCARESSYYKYYYWGQGTQVTLSS” is “high polyreactivity”.

Regarding “QVQLVESGGGLVQAGGSLRLSCAASGRTLLPNAMGWYRPAPGKERELVADISTSDGSTRYADSVKGRFTISRDNAKNTVYLQMNSLKPEDTAVYYCAAGSEYYSYGGVRFSFYYWGQGTQVTVSS”, the “polyreactivity (PSR sort gate)” value is “low polyreactivity”. Consider “QVQLVESGGGLVQAGGSLRLSCAASGRTLNTYTMGWYRQAPGKERELVAAITWRGGRTYYADSVKRRFTISRDYAKNTVYLQMNSLKPEDTAVYYCAAVRRNKPVGYGYWGQGTQVTVSS”, for which the “polyreactivity (PSR sort gate)” value is given as “high polyreactivity”. Regarding “QVQLVESGGGLVQAGGSLRLSCAASGRTLPAYAMGWYRQAPGKERELVAAISWGGGSTYYADSVKGRFTISRDNAKKTVYLQMNSLKPEDTAVYYCAVAGYWFAVAEYDYWGQGTQVTVSS”, the “polyreactivity (PSR sort gate)” value is listed as “low polyreactivity”.

On to “QVQLVESGGGLVQAGGSLRLSCAASGRTLPEYGMGWSRQAPGKEREFVAAISTRGGSTYYANSVKGRFTISRDNAKNTVYLQMNSLKPEDTAVYYCAKVYDRSCGDYWGQGTQVTVSS”, for which the “polyreactivity (PSR sort gate)” value is “low polyreactivity”. Regarding “QVQLVESGGGLVQAGGSLRLSCAASGRTLQGYAMGWYSQAPGKERELVAAISRGGGSTYADSVKGRFTISRDNAKNTVYLQMNSLKPEDTAVYYCAAVRGIYGGHYFRYDYWGQGTQVTVSS”, the “polyreactivity (PSR sort gate)” value is recorded as “high polyreactivity”. Take “QVQLVESGGGLVQAGGSLRLSCAASGRTLRRNAMGWYRQAPGKERELVAAITWSGTSTYYADSVKGRFTISRDNAKNTVDLQMNSLKPEDTAVYYCAAEVAYTDTEYFWYYYWGQGTQVTVSS”: the “polyreactivity (PSR sort gate)” value is “high polyreactivity”. For the sequence “QVQLVESGGGLVQAGGSLRLSCAASGRTLSHYAMGWYRQAPGKERELVAAITRSGGSTYYADSVKGRFTISRDYAKNTVYLQMNSLKPEDTAVYYCNKTLYTTYDYWGQGTQVTVSS”, the “polyreactivity (PSR sort gate)” value is given as “low polyreactivity”. Consider “QVQLVESGGGLVQAGGSLRLSCAASGRTLSVYAMGWYRQAPGKERELVAAITIRGGRTYYADSVKGRFTISRDNAKNTVYLQMNSLKPEDTAVYYCAAPPYVKMDYWGQGTQVTVSS”, for which the “polyreactivity (PSR sort gate)” value was “high polyreactivity”. Under “QVQLVESGGGLVQAGGSLRLSCAASGRTLSYYAMGWYRQAPGKEREFVAAITGSGGSTYYADSVKGRFTISRDNAKYTVYLQMNSLKPEDTAVYYCNAKGLGVFTVEYYYWGQGTQVTVSS” stands “low polyreactivity”.

Regarding “QVQLVESGGGLVQAGGSLRLSCAASGRTLSYYAMGWYSQAPGKERELVAAITWNGGRTYYADSVKGRFTISRDNAKNTVYLQMNSRKPEDTAVYYCNAVYSPRYYVGGYDYWGQGTQVTVSS”, the “polyreactivity (PSR sort gate)” value is “high polyreactivity”.

Take “QVQLVESGGGLVQAGGSLRLSCAASGRTLTQNAMGWYRQAPGKERELVATISWTAGSTYYADSVKGRFTISRDNAKNTVYLQMNSLKPEDTAVYYCAADVFYSIYDYWGQGTQVTVSS”: the “polyreactivity (PSR sort gate)” value is on record as “low polyreactivity”. Turning to “QVQLVESGGGLVQAGGSLRLSCAASGRTLVKYAMGWYRQAPGKERELVAAISSGGGTYYADSVKGRFTISRDNAKNTVYLQMNSLKPEDTAVYYCATPYYRRYAAPGYDYWGQGTQVTVSS”, the “polyreactivity (PSR sort gate)” value was “low polyreactivity”. For “QVQLVESGGGLVQAGGSLRLSCAASGRTLVSNAMGWYRQAPGKERELVARISYRGGSTYYADSVKGRFTISRDNAKNTVYLQMNSLKPEDTAVYYCAAGVRGSGRRMEYWGQGTQVTVSS”, the “polyreactivity (PSR sort gate)” value was “high polyreactivity”.

With “QVQLVESGGGLVQAGGSLRLSCAASGRTLVYYAMGWYRQAPGKERELVAAITSVGSTNYADSVKGRFTISRDNAKNTVYLQMNSLKPEDTAVYYCAVRRVVARYDHWGQGTQVTVSS”, the “polyreactivity (PSR sort gate)” value is “low polyreactivity”. With “QVQLVESGGGLVQAGGSLRLSCAASGRTLWSYVMGWYRQAPGKERELVAAITSGGTTYYADSVKGRFTISRDKAKNTVYLQMNSLKPEDTAVYYCAAGKYYLRLLPYGYWGQGTQVTVSS”, the “polyreactivity (PSR sort gate)” value is “high polyreactivity”. Turning to “QVQLVESGGGLVQAGGSLRLSCAASGRTLYGYTMGWYRQAPGQEREVVAAINAGGGSTYYADSVKGRFTSSRDNAKNTVYLQMNSLKPEDTAVYSCNARVRVRLGRNWSSYYYWGQGTQVTVSS”, the “polyreactivity (PSR sort gate)” value is “high polyreactivity”. In the case of “QVQLVESGGGLVQAGGSLRLSCAASGRTLYIYAMGWYRQAPGKERELVAAITRRGDSTYYADSVKGRFTISRDNAKNTVYLQMNSLKPEDTAVYYCAADFQDTSSQYDPAYEYWGQGTQVTVSS”, the “polyreactivity (PSR sort gate)” value is given as “low polyreactivity”.

With “QVQLVESGGGLVQAGGSLRLSCAASGRTLYRNDMGWYIQAPGKERELVARITWSGASTYYADSVKGRFTISRDNAKNSVYLQMKSLKTEDTAVYFCAALYLSRRYGPDDSYNFWGQGTQVTVSS”, the “polyreactivity (PSR sort gate)” value is “high polyreactivity”. As for “QVQLVESGGGLVQAGGSLRLSCAASGRTLYVNAMGSYRQAPGKERELVARISSGSSTNYADSVKGRFTISRDNAKNTVYLQMNSLKPEHTAVYYCAARYTARRQSYGYWGQGTQVTVSS”, the “polyreactivity (PSR sort gate)” value is “high polyreactivity”. As for “QVQLVESGGGLVQAGGSLRLSCAASGRTLYWYAMGWYRQAPGKERQLVAVISGSGASTYYADSVKGRFTISRDNAKNTVYLQMNSLKPEDTAVYYCNARDYRRYGRYHWQDYDYWGQGTQVTVSS”, the “polyreactivity (PSR sort gate)” value is on record as “high polyreactivity”. As to “QVQLVESGGGLVQAGGSLRLSCAASGRTLYYYAMGWYRQAPGKEMDLVASISRGGNTNYADSVKGRFTISRDNAKNSVYLQMYSLKPEDTAVYYCAAQYSPYSFSQYVYWGQGTQVTVSS”, the “polyreactivity (PSR sort gate)” value is “high polyreactivity”.

With “QVQLVESGGGLVQAGGSLRLSCAASGRTLYYYTMGWYRPAPGKERELVAAIRWSTGSTYYADSVKGRFTISRDNAKNTVYLQMNSLKPEDTAVYYCNAYRYQWAQSTEYDYWGQGTQVTVSS”, the “polyreactivity (PSR sort gate)” value was “high polyreactivity”. On to “QVQLVESGGGLVQAGGSLRLSCAASGRTMNSNAKGSYRQAPGKEREFVAAITSGGSTNYADSVKGRFSLSRDNAKNTVYLQMTSLKPEDTAVYYCAVRGYWTIRCRRYYYWGHGTQVTVSS”, for which the “polyreactivity (PSR sort gate)” value is on record as “high polyreactivity”. For the sequence “QVQLVESGGGLVQAGGSLRLSCAASGRTSAIYDMGWYRQAPGKERDLVAAIDYSDGSTYYADSVKGRFTISRDNAKYTVYLQMNSLKPEDTAVYYCAADYDAIYLWWGYDYWGQGTQLTVSS”, the “polyreactivity (PSR sort gate)” value is “low polyreactivity”. Consider “QVQLVESGGGLVQAGGSLRLSCAASGRTSGFNTMGWYRPAPGKEREMVAAISFSGGSTYYADSVKGRFTISRDNAKNTVYLQMNSLKPEDTAVYYCNALYRYLYRSGDYWGQGTQVTVSS”, for which the “polyreactivity (PSR sort gate)” value is “low polyreactivity”. Under “QVQLVESGGGLVQAGGSLRLSCAASGRTSKVYAMGWYRQAPGTERELVAAITRGNTYYADSVKGRFTISRDNAKNTVYLQMNSLKPEDTAVYYCAADYRYWLSYFKKYDYWGQGTQVTVSS” stands “high polyreactivity”.
